Source: US20220411514A1, “ANTI-GAL3 ANTIBODIES AND METHODS OF USE FOR INSULIN RESISTANCE” (TrueBinding, Inc., priority 2021, published 2022)
Positions count from the first letter of the chain named.

B1: 7D8.2D8: anti-Gal3 antibody (antibody)
heavy: EVQLVESGGGLVKPGGSLKLSCAASGFTFSSYAMSWVRQTPEKRLEWVATISDGGIYTYYPDNVKGRFTISRDNAKNNLFLQMSHLKSEDTAMYYCVRDGGYWGQGTTLTVSSAKTTPPSVYPLAPVCGDTTGSSVTLGCLVKGYFPEPVTLTWNSGSLSSGVHTFPAVLQSDLYTLSSSVTVTSSTWPSQSITCNVAHPASSTKVDKKIEPRGPTIKPCPPCKCPAPNAAGGPSVFIFPPKIKDVLMISLSPIVTCVVVDVSEDDPDVQISWFVNNVEVHTAQTQTHREDYNSTLRVVSALPIQHQDWMSGKEFKCKVNNKDLGAPIERTISKPKGSVRAPQVYVLPPPEEEMTKKQVTLTCMVTDFMPEDIYVEWTNNGKTELNYKNTEPVLDSDGSYFMYSKLRVEKKNWVERNSYSCSVVHEGLHNHHTTKSFSRTPGK
light: DVLMTQTPLSLPVSLGDQASISCRSSQSIVHSNGNTYLEWYLQKPGQSPKLLIYKVSNRFSGVPDRFSGSGSGTDFTLKISRVEAEDLGVYYCFQGSHVPLTFGAGTKLELKRADVAPTVSIFPPSSEQLTSGGASVVCFLNNFYPKDINVKWKIDGSERQNGVLNSWTDQDSKDSTYSMSSTLTLTKDEYERHNSYTCEATHKTSTSPIVKSFNRNEC
modifications: 7D8.2D8 heavy chain peptide sequence; 7D8.2D8 light chain peptide sequence
notes: anti-Gal3 antibody
B2: 15F10.2D6: anti-Gal3 antibody (antibody)
heavy: B1 heavy with T28A, I56V, P61T, N63H, K76E, N77D, F80Y
light: B1 light with S32N, A105G
modifications: 15F10.2D6 heavy chain peptide sequence; 15F10.2D6 light chain peptide sequence
notes: anti-Gal3 antibody
B3: 20D11.2C6: anti-Gal3 antibody (antibody)
heavy: EVQLQQSGPELVKPGASVKISCKASGYTFTDFYINWVKQSHGKSLEWIGDINPKNGGINYNPKFKIKATLTVDKSSSTSYMDLRGLTSEDSAVYYCTSGYGFPYWGQGTLVTVSAAKTTPPSVYPLAPVCGDTTGSSVTLGCLVKGYFPEPVTLTWNSGSLSSGVHTFPAVLQSDLYTLSSSVTVTSSTWPSQSITCNVAHPASSTKVDKKIEPRGPTIKPCPPCKCPAPNAAGGPSVFIFPPKIKDVLMISLSPIVTCVVVDVSEDDPDVQISWFVNNVEVHTAQTQTHREDYNSTLRVVSALPIQHQDWMSGKEFKCKVNNKDLGAPIERTISKPKGSVRAPQVYVLPPPEEEMTKKQVTLTCMVTDFMPEDIYVEWTNNGKTELNYKNTEPVLDSDGSYFMYSKLRVEKKNWVERNSYSCSVVHEGLHNHHTTKSFSRTPGK
light: DIQMNQSPSSLSASLGDTITITCRASQNIYIWLSWYQQKPGNIPKLLIYKASNLHTGVPSRFSGSGSGTDFTLTISTLQPEDIATYFCLQGQSYPLTFGAGTKLEMKRADVAPTVSIFPPSSEQLTSGGASVVCFLNNFYPKDINVKWKIDGSERQNGVLNSWTDQDSKDSTYSMSSTLTLTKDEYERHNSYTCEATHKTSTSPIVKSFNRNEC
modifications: 20D11.2C6 heavy chain peptide sequence; 20D11.2C6 light chain peptide sequence
notes: anti-Gal3 antibody
B4: 19B5.2E6: anti-Gal3 antibody (antibody)
heavy: QIQLVQSGPELKKPGETVKISCKASGYTFTTYAMSWVKQAPGKGLKWMGWINTYSGVPTYADDLKGRFAFSLETSASTAYLQINNLKNEDTATYFCARGPYAMDYWGQGTSVTVSSAKTTPPSVYPLAPVCGDTTGSSVTLGCLVKGYFPEPVTLTWNSGSLSSGVHTFPAVLQSDLYTLSSSVTVTSSTWPSQSITCNVAHPASSTKVDKKIEPRGPTIKPCPPCKCPAPNAAGGPSVFIFPPKIKDVLMISLSPIVTCVVVDVSEDDPDVQISWFVNNVEVHTAQTQTHREDYNSTLRVVSALPIQHQDWMSGKEFKCKVNNKDLGAPIERTISKPKGSVRAPQVYVLPPPEEEMTKKQVTLTCMVTDFMPEDIYVEWTNNGKTELNYKNTEPVLDSDGSYFMYSKLRVEKKNWVERNSYSCSVVHEGLHNHHTTKSFSRTPGK
light: DIQMTQTTSSLSASLGDRVTISCSASQGINNYLNWYQQKPDGTVKLLIYYASSLHSGVPSRFSGSGSGTDYSLTISNLEPEDIATYYCQQYSQVPYTFGSGTKLEIKRADVAPTVSIFPPSSEQLTSGGASVVCFLNNFYPKDINVKWKIDGSERQNGVLNSWTDQDSKDSTYSMSSTLTLTKDEYERHNSYTCEATHKTSTSPIVKSFNRNEC
modifications: 19B5.2E6 heavy chain peptide sequence; 19B5.2E6/23H9.2E4 light chain peptide sequence
notes: anti-Gal3 antibody
B5: 23H9.2E4: anti-Gal3 antibody (antibody)
heavy: B4 heavy
light: B4 light
modifications: 23H9.2E4 heavy chain peptide sequence; 19B5.2E6/23H9.2E4 light chain peptide sequence
notes: anti-Gal3 antibody
B6: mTB001: anti-Gal3 antibody mTB001 (antibody)
heavy: QIQLVQSGPELKKPGETVKISCKASGYTFTNYGMNWVKQAPGKGLKWMGWINTNTGEPTYVEEFKGRFAFSLETSASTAYLQINNLKNEDTATYFCAPYDNFFAYWGQGTLVTVSAAKTTPPSVYPLAPVCGDTTGSSVTLGCLVKGYFPEPVTLTWNSGSLSSGVHTFPAVLQSDLYTLSSSVTVTSSTWPSQSITCNVAHPASSTKVDKKIEPRGPTIKPCPPCKCPAPNAAGGPSVFIFPPKIKDVLMISLSPIVTCVVVDVSEDDPDVQISWFVNNVEVHTAQTQTHREDYNSTLRVVSALPIQHQDWMSGKEFKCKVNNKDLGAPIERTISKPKGSVRAPQVYVLPPPEEEMTKKQVTLTCMVTDFMPEDIYVEWTNNGKTELNYKNTEPVLDSDGSYFMYSKLRVEKKNWVERNSYSCSVVHEGLHNHHTTKSFSRTPGK
light: DIVITQDELSNPVTSGESVSISCRSSKSLLYKDGKTYLNWFLQRPGQSPQLLIYLMSTHASGVSDRFSGSGSGTDFTLEISRVKAEDVGVYYCQQLVDYPLTFGAGTKLELKRADVAPTVSIFPPSSEQLTSGGASVVCFLNNFYPKDINVKWKIDGSERQNGVLNSWTDQDSKDSTYSMSSTLTLTKDEYERHNSYTCEATHKTSTSPIVKSFNRNEC
modifications: mTB001 heavy chain peptide sequence; mTB001 light chain peptide sequence

Legend:
[1] = target: T1, hGal3 peptide (Homo sapiens, UniProt P17931); experiment: Gal3 peptide library binding ELISA (Example 2)
T1 construct: a library of 24 amino acid peptides representing portions of Gal3
Method: To identify the epitopes to which Gal3 antibodies with and without Gal3-INSR blocking activity bound, a library of 24 amino acid peptides representing portions of Gal3, depicted in FIG. 18, was produced and the ability of each peptide to bind Gal3 antibodies was evaluated by ELISA. At least 2 μg/ml of hGal3 peptide in 50 μl of PBS or 0.1 μg/ml of full-length human Gal3 protein (GenScript) and human Galectin-3 protein (Acro Biosystems, GA3-H5129) were diluted in PBS (Corning, 21-030-CM) to concentrations of at least 2 μg/ml or 0.1 μg/ml, respectively, and added to the wells of a 96-well ELISA plate (Thermo Fisher, 44-2404-21). After incubating the plate at 4° C. overnight, the plate was washed three times with PBST (PBS with 0.05% Tween 20 [VWR, 0777]). The plate was then blocked for an hour with 2% BSA (EMD Millipore, 126609) in PBST at room temperature with gentle rocking. Thereafter, the 2% BSA in PBST was discarded and human Galectin-3 hybridoma supernatants or antibodies were diluted in 2% BSA in PBST to concentrations of at least 0.1 μg/ml and added to the wells. The plate was incubated for an hour at room temperature with gentle rocking and then washed three times with PBST. Afterwards, Goat Anti-Mouse IgG-HRP (Jackson ImmunoResearch, 115-036-1461) or Goat Anti-Rat IgG HRP (Abcam, ab205720) diluted in 2% BSA in PBST (1:4000) were added to the wells. The plate was incubated for 30 minutes to 1 hour at room temperature with gentle rocking and then washed three times with PBST. TMB substrate (Thermo Scientific, 34029) was then added to each well. The reaction was stopped with 1M HCl (JT Baker, 5620-02) and read using a plate reader (Molecular Devices) at absorbance of 450 nm.

[2] = target: T2, Human Gal3 peptides (Homo sapiens, UniProt P17931); experiment: Gal3 peptide binding ELISA (Example 8); conditions: antibody 5 μg/mL
T2 construct: purchased LifeTein custom order
Summary of the method: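 Reformatted hIgG4 (S228P) anti-Gal3 antibodies were tested at 5 μg/mL for 1 h at room temperature against immobilised human Gal3 peptides (≥100 μg/mL coating) or protein (1 μg/mL coating) on BSA-blocked plates. Bound antibody read by peroxidase goat anti-human IgG with TMB at 450 nm.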

[3] = system: NOD/ShiLtJ mice
Text: To assess the therapeutic potential of anti-GAL3 antibody in Type I diabetes, a mouse model of diabetes type I was used. Briefly, seven-weeks-old female NOD/ShiLtJ mice (Jackson lab (001976)) and control group animals NOR/LtJ (Jackson Lab (002050)) were housed in standard disposable cages with filter tops at room temperature with a 6:00-18:00 day-night cycle. Mice were allowed to rest for a week before initiating glucose monitoring. The antibody treatment was initiated when glucose levels reach 250-400 (mg/dL) for two consecutive days. To establish glucose levels, the blood samples were collected from tail vein of the experimental animals following housing in clean cages with water and no food for 4-6 hours. The collected samples were analyzed by HemoCue Glucose 201 Analyzer and cuvettes (Mercedes Scientific 110706). The animals were dosed twice a week (10 mg/kg) with anti-GAL3 antibodies (mTB001) or PBS control. […] At the end stage, the plasma samples were collected from symptomatic animals. C-peptide levels were determined by Alpco Mouse C-peptide ELISA kit (Alpco, 80-CPTMS-E01).

| Molecule | binding to Gal3 peptide 7 (amino acids 61-80, SEQ ID NO: 9) [1] | binding to Gal3 peptide 2 (SEQ ID NO: 4) [2] | binding to Gal3 peptide 3 (SEQ ID NO: 5) [2] | binding to Gal3 peptide 1 (amino acids 1-20, SEQ ID NO: 3) [1] | binding to Gal3 peptide 1 (SEQ ID NO: 3) [2] | binding to Gal3 peptide 7 (SEQ ID NO: 9) [2] | binding to Gal3 peptide 8 (SEQ ID NO: 10) [2] | also measured |
| --- | --- | --- | --- | --- | --- | --- | --- | --- |
| B1 | bound | bound | bound | – | – | – | – | binding to Gal3 peptide 17 (SEQ ID NO: 19) [2]: bound |
| B2 | bound | bound | bound | – | – | – | – | binding to Gal3 peptide 4 (SEQ ID NO: 6) [2]: bound |
| B3 | bound | – | – | bound | bound | bound | bound | – |
| B4 | bound | – | – | bound | bound | bound | – | – |
| B5 | bound | – | – | bound | bound | bound | bound | binding to Gal3 peptide 6 (SEQ ID NO: 8) [2]: bound |
| B6 | – | – | – | – | – | – | – | blood glucose levels ([3]; 10 mg/kg twice a week): stabilizing the levels of blood glucose; survival ([3]; 10 mg/kg twice a week): prolonged survival; circulating C-peptide levels ([3]; end stage plasma): restoring C-peptide levels |
